Experimental findings from article PMC4066579 (Nature methods, 2009) are described below.

Data set [1] deals with the molecule itself. Kind of data set: native MS.
Data set [2] concerns the molecule itself. The data set is described as follows: native MS. The source holds these as a separate data set.

Where two headings read alike, the source gives them in different places.

B1: MacB (natural protein, UniProt P75831 1-648, looked up)
chain: MTPLLELKDIRRSYPAGDEQVEVLKGISLDIYAGEMVAIVGASGSGKSTLMNILGCLDKATSGTYRVAGQDVATLDADALAQLRREHFGFIFQRYHLLSHLTAEQNVEVPAVYAGLERKQRLLRAQELLQRLGLEDRTEYYPAQLSGGQQQRVSIARALMNGGQVILADEPTGALDSHSGEEVMAILHQLRDRGHTVIIVTHDPQVAAQAERVIEIRDGEIVRNPPAIEKVNVTGGTEPVVNTVSGWRQFVSGFNEALTMAWRALAANKMRTLLTMLGIIIGIASVVSIVVVGDAAKQMVLADIRSIGTNTIDVYPGKDFGDDDPQYQQALKYDDLIAIQKQPWVASATPAVSQNLRLRYNNVDVAASANGVSGDYFNVYGMTFSEGNTFNQEQLNGRAQVVVLDSNTRRQLFPHKADVVGEVILVGNMPARVIGVAEEKQSMFGSSKVLRVWLPYSTMSGRVMGQSWLNSITVRVKEGFDSAEAEQQLTRLLSLRHGKKDFFTWNMDGVLKTVEKTTRTLQLFLTLVAVISLVVGGIGVMNIMLVSVTERTREIGIRMAVGARASDVLQQFLIEAVLVCLVGGALGITLSLLIAFTLQLFLPGWEIGFSPLALLLAFLCSTVTGILFGWLPARNAARLDPVDALARE
B1: the stoichiometry N – broadly, a count of units in the complex or per binding partner – in data set [1] came out at 2.

B2: MexB (natural protein, Pseudomonas aeruginosa strain PAO1, UniProt P52002 1-1046, looked up)
chain: MSKFFIDRPIFAWVIALVIMLAGGLSILSLPVNQYPAIAPPAIAVQVSYPGASAETVQDTVVQVIEQQMNGIDNLRYISSESNSDGSMTITVTFEQGTDPDIAQVQVQNKLQLATPLLPQEVQRQGIRVTKAVKNFLMVVGVVSTDGSMTKEDLSNYIVSNIQDPLSRTKGVGDFQVFGSQYSMRIWLDPAKLNSYQLTPGDVSSAIQAQNVQISSGQLGGLPAVKGQQLNATIIGKTRLQTAEQFENILLKVNPDGSQVRLKDVADVGLGGQDYSINAQFNGSPASGIAIKLATGANALDTAKAIRQTIANLEPFMPQGMKVVYPYDTTPVVSASIHEVVKTLGEAILLVFLVMYLFLQNFRATLIPTIAVPVVLLGTFGVLAAFGFSINTLTMFGMVLAIGLLVDDAIVVVENVERVMAEEGLSPREAARKSMGQIQGALVGIAMVLSAVFLPMAFFGGSTGVIYRQFSITIVSAMALSVIVALILTPALCATMLKPIEKGDHGEHKGGFFGWFNRMFLSTTHGYERGVASILKHRAPYLLIYVVIVAGMIWMFTRIPTAFLPDEDQGVLFAQVQTPPGSSAERTQVVVDSMREYLLEKESSSVSSVFTVTGFNFAGRGQSSGMAFIMLKPWEERPGGENSVFELAKRAQMHFFSFKDAMVFAFAPPSVLELGNATGFDLFLQDQAGVGHEVLLQARNKFLMLAAQNPALQRVRPNGMSDEPQYKLEIDDEKASALGVSLADINSTVSIAWGSSYVNDFIDRGRVKRVYLQGRPDARMNPDDLSKWYVRNDKGEMVPFNAFATGKWEYGSPKLERYNGVPAMEILGEPAPGLSSGDAMAAVEEIVKQLPKGVGYSWTGLSYEERLSGSQAPALYALSLLVVFLCLAALYESWSIPFSVMLVVPLGVIGALLATSMRGLSNDVFFQVGLLTTIGLSAKNAILIVEFAKELHEQGKGIVEAAIEACRMRLRPIVMTSLAFILGVVPLAISTGAGSGSQHAIGTGVIGGMVTATVLAIFWVPLFYVAVSTLFKDEASKQQASVEKGQ
With B2, in data set [1], the “stoichiometry N” value was 3.

B3: EmrE-EFE(1–113), unmodified (free N-terminal methionine) (natural protein)
chain: MNPYIYLGGAILAEVIGTTLMKFSEGFTRLWPSVGTIICYCASFWLLAQTLAYIPTGIAYAIWSGVGIVLISLLSWGFFGQRLDLPAIIGMMLICAGVLIINLLSRSTPHEFE
Take B3: in data set [2], the “stoichiometry N” value stood at 2.

B4: EmrE-EFE(1–113), N-terminally formylated (natural protein)
chain: B3 chain
modifications: formylation at an N-terminal methionine
On to B4, for which, in data set [2], the “stoichiometry N” value was determined as 2.
